We go through 10 proteins from the supplement of paper PMC10567573.

The data set is described as follows: protein stability index of a GFP-peptide fusion (GPS, HEK-293T) (PSI 1-6); higher = more stable. To be noted: c terminus: native.
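Note: lentivirally expressed fusion library, cells FACS-sorted into six equal-sized GFP/DsRed ratio bins, PSI computed from sequencing read fractions per bin weighted by bin number.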

B1: POLD2 addD (peptide)
chain: CQPISFSGFGAEDDDLGGLGLGPD
Take B1: the protein stability index (parent: NP_006221.1) amounted to 2.2.

B2: SNF8 addM (peptide)
chain: LPALFTDLYSQEITAEEAREALPM
Regarding B2, the protein stability index (parent: NP_009172.2) is 3.04.

B3: SNF8 addD (peptide)
chain: LPALFTDLYSQEITAEEAREALPD
For B3, the protein stability index (parent: NP_009172.2) was determined as 5.09.

B4: PSMB5 addM (peptide)
chain: DGWIRVSSDNVADLHEKYSGSTPM
B4: the protein stability index (parent: NP_002788.1) is 2.89.

B5: POLD2 addM (peptide)
chain: CQPISFSGFGAEDDDLGGLGLGPM
Consider B5, for which the protein stability index (parent: NP_006221.1) amounted to 2.38.

B6: BEX2 addM (peptide)
chain: HSLRAVSTDPPHHDHHDEFCLMPM
Consider B6, for which the protein stability index (parent: NP_116010.1) came out at 3.52.

B7: TRPA1 addD (peptide)
chain: EQRNSRWNTVLRAVKAKTHHLEPD
For the protein B7, the protein stability index (parent: NP_015628.1) worked out at 3.91.

B8: PSMB5 addD (peptide)
chain: DGWIRVSSDNVADLHEKYSGSTPD
B8: the protein stability index (parent: NP_002788.1) was found to be 4.37.

B9: BEX2 addD (peptide)
chain: HSLRAVSTDPPHHDHHDEFCLMPD
For B9, for the setting “parent: NP_116010.1”, the protein stability index came out at 4.42.

B10: TRPA1 addM (peptide)
chain: EQRNSRWNTVLRAVKAKTHHLEPM
B10: the protein stability index (parent: NP_015628.1) was 4.79.
